Paper PMC2110899, “Exchanging Murine and Human Immunoglobulin Constant Chains Affects the Kinetics and Thermodynamics of Antigen Binding and Chimeric Antibody Autoreactivity” (PLoS ONE, 2007)
Ends that are not written are not given here.

B1: Mouse-human chimeric antibody 18B7 (IgG1) (antibody, V domains shown)
VH: DVKLVESGGGLLKLGGSLKLSCVASGFSFSSYFMSWVRQTPEKRLELVAMINNNGDKTYYPDTVRGRFTISRDNAKNTLYLQMSSLKSEDTAMYYCARRDGTFGNHFDYWGQGTTLTVSS
VL: DVVMTQAPLALPVSLGDQASISCRSSQSLAHSNGNTYLHWYLQKPGQSPKLLIYKVSNRFSGVPDRFSGSGSGTDFTLKISRVEAEDLGVYFCSQSTHVPWTFGGGTKLEIK
notes: as the VH of m1 (identical V regions); human IgG1 (γ1) heavy chain constant region; as the VL of m1 (identical V regions); light chain constant region; IgG1; also called chAb 18B7; ch18B7; source: generated by cloning and transfection as described [36], purified by protein L agarose beads
B2: deglycosylated form of mAb 18B7 (antibody, V domains shown)
VH: B1 VH
VL: B1 VL
notes: as the VH of m1; murine IgG1 heavy chain constant region, as in m1; as the VL of m1; as the light chain constant region of m1; Same chains as m1 without the N-glycan; PNGase F is known to turn the glycosylated Asn into Asp; also called 18B7dg; mAb 18B7dg; source: mAb 18B7 from hybridoma culture supernatants (protein G), incubated with PNGaseF at 37°C for 24 h, dialyzed against PBS
B3: GXM-binding murine monoclonal antibody 18B7 (antibody, V domains shown)
VH: B1 VH
VL: B1 VL
notes: VH of mAb 18B7; murine IgG1 heavy chain constant region; VL of mAb 18B7; murine light chain constant region; Murine IgG1; also called mAb 18B7; m18B7

What was measured:
[1] = target: GXM-binding murine monoclonal antibody 18B7 (mouse); experiment: SPR; BIAcore 3000; antibody immobilised on a CM5 chip through primary amino groups; peptide P1 1.56 µM to 200 µM at 100 µl/min in 0.2 mM K2HPO4/KH2PO4 pH 6.5, 150 mM KCl, 0.01% Tween 20; 25°C; global fit to a two-state model, equilibrium constants calculated from the rate constants
[2] = target: deglycosylated form of mAb 18B7 (mouse); experiment: as above
[3] = target: Mouse-human chimeric antibody 18B7 (IgG1) (mouse | human); experiment: as above
thyroglobulin = target: T1, thyroglobulin (Bos taurus (assumed), UniProt P01267); experiment: ELISA; polystyrene plates coated overnight at 4°C with antigen at 5 µg/ml in bicarbonate buffer pH 9.6; blocked with 1% BSA in TBS; Abs added at 40 µg/ml in 1% BSA/TBS and serially diluted, overnight at 4°C; alkaline-phosphatase conjugated anti-mouse or anti-human IgG; conditions: both partners purified
T1 construct: thyroglobulin (Sigma); source: bought: Sigma
T1 sequence (P01267 20-2769): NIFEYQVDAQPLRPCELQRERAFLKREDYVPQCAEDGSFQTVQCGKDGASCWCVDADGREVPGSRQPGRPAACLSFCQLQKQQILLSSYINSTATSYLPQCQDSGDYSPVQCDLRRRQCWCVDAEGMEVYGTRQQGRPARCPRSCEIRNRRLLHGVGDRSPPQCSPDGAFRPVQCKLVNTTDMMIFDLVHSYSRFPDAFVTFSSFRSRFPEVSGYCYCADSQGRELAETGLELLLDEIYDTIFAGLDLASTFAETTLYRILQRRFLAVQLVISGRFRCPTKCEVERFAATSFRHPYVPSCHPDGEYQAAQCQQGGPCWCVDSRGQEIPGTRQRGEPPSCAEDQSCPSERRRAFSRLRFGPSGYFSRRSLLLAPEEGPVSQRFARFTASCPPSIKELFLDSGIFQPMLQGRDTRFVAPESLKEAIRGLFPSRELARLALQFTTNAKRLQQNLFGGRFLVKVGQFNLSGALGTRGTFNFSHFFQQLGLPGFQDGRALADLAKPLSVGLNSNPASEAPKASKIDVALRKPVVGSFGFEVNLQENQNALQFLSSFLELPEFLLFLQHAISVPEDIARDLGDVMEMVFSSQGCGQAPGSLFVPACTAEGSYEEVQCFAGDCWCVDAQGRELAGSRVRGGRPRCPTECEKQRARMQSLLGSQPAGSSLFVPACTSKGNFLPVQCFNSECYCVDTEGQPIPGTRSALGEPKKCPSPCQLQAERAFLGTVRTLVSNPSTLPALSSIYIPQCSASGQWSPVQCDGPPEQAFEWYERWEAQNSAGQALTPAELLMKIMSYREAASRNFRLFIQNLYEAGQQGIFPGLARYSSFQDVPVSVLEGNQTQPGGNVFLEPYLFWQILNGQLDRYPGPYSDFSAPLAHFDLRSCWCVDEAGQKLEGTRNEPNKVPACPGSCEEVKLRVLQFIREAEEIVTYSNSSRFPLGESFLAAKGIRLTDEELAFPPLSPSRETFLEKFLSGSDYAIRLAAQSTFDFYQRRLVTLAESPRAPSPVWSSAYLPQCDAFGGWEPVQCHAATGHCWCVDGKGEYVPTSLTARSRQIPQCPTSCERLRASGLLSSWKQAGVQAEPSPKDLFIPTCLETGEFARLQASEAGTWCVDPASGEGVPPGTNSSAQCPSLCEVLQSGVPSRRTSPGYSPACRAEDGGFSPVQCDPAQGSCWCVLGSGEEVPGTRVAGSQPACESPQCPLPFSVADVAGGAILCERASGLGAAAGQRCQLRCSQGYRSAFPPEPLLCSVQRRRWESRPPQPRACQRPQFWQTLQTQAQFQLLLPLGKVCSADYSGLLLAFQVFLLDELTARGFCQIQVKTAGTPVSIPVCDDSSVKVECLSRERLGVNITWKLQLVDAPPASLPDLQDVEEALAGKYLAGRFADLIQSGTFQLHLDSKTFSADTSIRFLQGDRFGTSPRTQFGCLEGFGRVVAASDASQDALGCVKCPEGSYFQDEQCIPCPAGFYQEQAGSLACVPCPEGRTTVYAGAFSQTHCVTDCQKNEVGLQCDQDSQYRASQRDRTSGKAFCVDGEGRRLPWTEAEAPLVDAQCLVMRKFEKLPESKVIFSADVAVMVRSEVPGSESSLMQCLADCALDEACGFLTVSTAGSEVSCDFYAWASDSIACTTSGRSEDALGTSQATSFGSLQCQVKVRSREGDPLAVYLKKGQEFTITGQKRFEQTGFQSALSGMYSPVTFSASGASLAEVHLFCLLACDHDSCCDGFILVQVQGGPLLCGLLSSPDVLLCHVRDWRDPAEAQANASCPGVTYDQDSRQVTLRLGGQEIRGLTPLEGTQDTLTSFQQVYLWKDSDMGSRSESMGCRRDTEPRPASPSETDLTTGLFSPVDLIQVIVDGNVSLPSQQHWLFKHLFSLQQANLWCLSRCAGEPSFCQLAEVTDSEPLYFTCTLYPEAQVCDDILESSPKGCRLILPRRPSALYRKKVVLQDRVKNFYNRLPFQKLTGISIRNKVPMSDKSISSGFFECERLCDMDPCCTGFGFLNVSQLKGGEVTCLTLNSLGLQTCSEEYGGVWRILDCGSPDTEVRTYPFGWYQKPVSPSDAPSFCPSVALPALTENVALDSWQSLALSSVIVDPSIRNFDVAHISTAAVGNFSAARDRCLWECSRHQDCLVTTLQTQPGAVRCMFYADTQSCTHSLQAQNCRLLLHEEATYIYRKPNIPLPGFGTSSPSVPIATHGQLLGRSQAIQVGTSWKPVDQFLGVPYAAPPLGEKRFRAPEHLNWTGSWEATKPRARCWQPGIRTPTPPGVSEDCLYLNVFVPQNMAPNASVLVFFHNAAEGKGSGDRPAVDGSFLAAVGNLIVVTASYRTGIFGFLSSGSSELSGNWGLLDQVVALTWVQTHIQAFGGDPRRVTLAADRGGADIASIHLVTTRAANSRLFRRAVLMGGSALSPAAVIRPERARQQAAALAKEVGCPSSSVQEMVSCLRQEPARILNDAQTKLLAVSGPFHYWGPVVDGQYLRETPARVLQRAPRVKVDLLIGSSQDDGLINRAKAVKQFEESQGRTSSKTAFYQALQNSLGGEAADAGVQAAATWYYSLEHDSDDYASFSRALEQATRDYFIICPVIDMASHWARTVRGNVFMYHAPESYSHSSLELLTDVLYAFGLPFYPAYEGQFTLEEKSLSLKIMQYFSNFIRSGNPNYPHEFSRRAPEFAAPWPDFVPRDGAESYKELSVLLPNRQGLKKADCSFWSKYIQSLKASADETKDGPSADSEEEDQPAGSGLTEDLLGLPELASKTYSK

Binder | Kd [1] | Kd [2] | Kd [3] | binding result (thyroglobulin)
SPNQHTPPWMLK (also: biotinylated, position not given here) [Peptide mimetic of GXM P1] | 2.33 mM | 1.07 mM | 541 µM | –
B1 | – | – | – | binds
B2 | – | – | – | binds
B3 | – | – | – | binds
